In article PMC8000408, “Inhibition of NUPR1–Karyopherin β1 Binding Increases Anticancer Drug Sensitivity” (International Journal of Molecular Sciences, 2021):

Key:
[1] = target: T1, Cy5-labeled karyopherin β1 (KPNB1) (UniProt Q14974 1-876, Cy5 label (site not stated)); assay: single-molecule pull-down (TIRF microscopy); GST-NUPR1 (100 nM) immobilised on PEG-coated quartz via neutravidin and biotin-conjugated GST-tag antibody; 5 nM Cy5-labeled KPNB1 in imaging buffer (4 mM Trolox, 0.2% glucose, 50 mM NaCl, pyranose oxidase, catalase); spots counted up to 1 h, then unbound KPNB1 washed out for dissociation; exponential fits; settings: both partners purified
T1 construct: Karyopherin β1 (KPNB1, importin β1); also called importin β1; Cy5-KPNB1

[2] = target: T1, Cy5-labeled karyopherin β1 (KPNB1); assay: single-molecule pull-down (TIRF microscopy); GST-NUPR1 immobilised; observed rate constants at various concentrations of karyopherin β1, fitted with a Michaelis-Menten equation; settings: both partners purified

T1 sequence (Q14974 whole entry): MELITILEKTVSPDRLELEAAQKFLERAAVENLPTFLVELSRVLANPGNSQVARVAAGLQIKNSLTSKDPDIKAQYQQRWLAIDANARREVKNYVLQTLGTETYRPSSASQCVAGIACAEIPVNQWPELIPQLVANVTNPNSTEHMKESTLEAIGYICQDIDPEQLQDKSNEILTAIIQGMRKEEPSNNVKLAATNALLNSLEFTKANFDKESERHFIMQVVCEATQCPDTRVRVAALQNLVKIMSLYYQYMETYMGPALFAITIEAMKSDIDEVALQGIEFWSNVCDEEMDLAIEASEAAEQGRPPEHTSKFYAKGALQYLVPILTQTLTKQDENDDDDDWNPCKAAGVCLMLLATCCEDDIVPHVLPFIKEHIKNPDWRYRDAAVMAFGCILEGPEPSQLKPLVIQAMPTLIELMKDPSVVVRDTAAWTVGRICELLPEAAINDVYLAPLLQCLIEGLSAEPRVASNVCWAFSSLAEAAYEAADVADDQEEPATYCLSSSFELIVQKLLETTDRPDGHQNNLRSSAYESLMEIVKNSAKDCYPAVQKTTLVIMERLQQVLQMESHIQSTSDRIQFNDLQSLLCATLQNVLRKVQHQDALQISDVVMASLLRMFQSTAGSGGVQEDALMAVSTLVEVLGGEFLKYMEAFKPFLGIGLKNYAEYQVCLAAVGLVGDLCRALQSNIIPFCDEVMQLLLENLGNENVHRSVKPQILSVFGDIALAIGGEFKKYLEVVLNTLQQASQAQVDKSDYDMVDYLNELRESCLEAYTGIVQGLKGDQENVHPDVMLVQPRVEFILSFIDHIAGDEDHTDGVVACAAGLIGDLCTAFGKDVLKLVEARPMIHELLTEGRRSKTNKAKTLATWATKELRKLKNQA

B1: GST-NUPR1 (nuclear protein-1) recombinant protein (natural protein, UniProt O60356 1-82, looked up)
chain: MATFPPATSAPQQPPGPEDEDSSLDESDLYSLAHSYLGGGGRKGRTKREAAANTNRPSPGGHERKLVTKLQNSERKKRGARR
notes: Nuclear protein-1 (NUPR1, p8/Com-1); Held on the PEG-coated quartz surface through neutravidin and a biotin-conjugated GST-tag antibody; No catalogue number is printed; also called p8; Com-1; source: bought: NOVUS Biologicals (recombinant protein)
Kd [1]: ~0.65 nM
koff [1]: 0.0003 s⁻¹
kon [1]: 467000 M⁻¹ s⁻¹
Kd [2]: 0.75 nM
